B1: BacF carrying a hexa-histidine tag (6-His-BacF) (natural protein, Bacillus subtilis, UniProt P39133 1-235, looked up)
chain: METTKLGNLKLYGAGHAAGGAYHNVSIKGEGIVGEGLSAVGCRIYGTGLFLGKAETERLRVLGESECKGDLTAGKINIYGTMKVSGSLQFDRFNLKGQTEIGGNMTGESCDVKGKLSVIGDCETEMFHVTGCVDVSGLLNSGEIKLGLSHDISHVQEIGGTTITVKRRASFFSRKKGKLIADVIEGDRVYLENTEAAVVRGKEVIIGPGCSIGTIEYEYKCECDPHSQIKEKTKL
notes: Bactofilin BacF, product of yhbF, Bacillus subtilis; full-length yhbF cloned into pET16b or pET24d; also called YhbF; his6-yhbF; source: E. coli BL21 (DE3); also coexpressed with untagged BacE, in cell extract
B2: BacE carrying a hexa-histidine tag (his6-yhbE) (natural protein, Bacillus subtilis, UniProt P39132 1-237, looked up)
chain: MDVVEKLVINGSGSSKGGTFQSVEINGSGTVAGDVECDTFSFNGNGKADGSVKAKAVTISGSGKIHGDVEAESIRMNGTGFIQGEVSAKQLKIAGSSTFGGTVKADGIDISGKAVMEADCETETFQSEGKCKISGLLNADQVIIKLSAGESYAREIGCRHLQVTCRKGMLTLLRLMPQPVLTAELIEGDVIELTNTKAKTVRGNKVIIGPDCQIETVEYSGDYTCDPSASVETSTKL
notes: Bactofilin BacE, product of yhbE, Bacillus subtilis; full-length yhbE cloned into pET16b or pET24d; source: E. coli BL21 (DE3); also coexpressed with untagged BacF, in cell extract

Target: the molecule itself
Assay: SEC; analytical gel filtration of the purified protein on its own; S200/26-60 column, 20 mM HEPES-Na pH 7.5, 250 mM NaCl, 10 mM KCl, 10 mM MgCl2; fractions analysed by SDS-PAGE

Protein	binding result
B1	binds
B2	binds
